Experiment: yeast display, Sf9 membrane polyspecificity reagent, FACS + sequencing; frameworks hold sequencing errors
Procedure, shortened: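 Galactose-induced (36–48 hours) yeast carrying a synthetic nanobody display library were exposed to 10% biotinylated, detergent-solubilized Sf9 membrane reagent at 4 °C for 1 hour. FACS followed streptavidin microbead enrichment, using low and high (top ~1%) gates for expression (anti-HA) and reagent binding (streptavidin). Colony PCR, MiSeq 2 × 250 sequencing and CDR-length filtering followed. Labels for polyreactivity reflect the gate of origin.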

Row | Sequence | polyreactivity (PSR sort gate)
1 | QVQLVESGGGLVQAVGSLRLSCAASGRTFSEYAMGWYRQAPGKERELVAAITGTGGSTYYADSVKGRFTISRDNAKNTVYLQMNSLKPEDTAVYFCAAEYYRYYFLSVSTDDYWGQGTQVTVSS | high polyreactivity
2 | QVQLVESGGGLVQAVGSLRLSCAASGSIFRRNVMGWYRPAPGKERELVATLTVGGSTYYADSVKGRFTISRDNAKNTVYLQMNSLIPEDTAVYYCAAYSPYLRSWYDYWGQGTQGTVSS | high polyreactivity
3 | QVQLVESGGGLVQAVGSLRLSCAASGSTFKAYAMGWYRQAPGKERELVAAITKSGGRTYYADSVKGRFTISRDNAKNTVYLQMNSLKPEDTAVYYCAAVFRPDSSAYRYYYLGQGTQVTVSS | high polyreactivity
4 | QVQLVESGGGLVQAVGSLRLSCAASGSTFNRYALGWYRQAPGKERQLVAAITVRGNTYYADSVKGRFTISRDNAKNTVYLQMNSLKPEDTAVYYCAARIYYLYKDRRLGYYWGQGTQVTVSS | high polyreactivity
5 | QVQLVESGGGLVQAVGSLRLSCAASGSTLVYYAMGWYRQAPGKERELVATITRSGGNTYYADSVKGRFTISRDNAKNTVYLQMNSLNPEDTAVYYWAARRLYGSQRGYWGQGTQVTVSS | high polyreactivity
6 | QVQLVESGGGLVQAVGSLRLSCAASGTISVANAMGWYRQAPGKERELVAVINTSGTRTYYADSVKGRFTISRDNAKNTVYLQMNSLKPEDTAVYYCAARLRGVQGYEYWGQGTQVTVSS | low polyreactivity
7 | QVQLVESGGGLVQAVGSLRLSCAASVSTFRHYAMGWYRQAPGKERELVAAISSTGGSTYYADSVKGRFTISRDNAKNTVYLQMNSLKPEDTAVYYCAARRLYWGQGTQVTVSS | high polyreactivity
8 | QVQLVESGGGLVQAVGSLRLSCAPSGRTLNNYTMGWNRPAPGKERELVAAIRWSTGSTYYADSVKGRFTISRDNSKNTVYLQMNSLKPEDTAVYYCNAYRYQWAQSTEYDYWGQGTQVTVSS | high polyreactivity
9 | QVQLVESGGGLVQAVGSLRLSCAPSGSLFPGYAMGWYRQAPGKERELVAAITFSGGSTYYADSVKGRFTISRDYAKQSVYLPMNSLKPEDTAVYYCAAPGWYGGYPSYYYWGQGTQVTVSS | low polyreactivity
10 | QVQLVESGGGLVQAVGSLRLSCAPSGTTFTHYAMGWYRKAPGKERELVAAISWSGGSTYYADSVKGRFTISRDNAKNTVYLQMNSLKQEDCAVYYCKTYGVSYYGSGYYWGQGTQVTVSS | high polyreactivity
11 | QVQLVESGGGLVQAVRSLRLSSAASGLTFGRNAMGWYRQAPGKERELVAAISRSGGRTSYADSVKGRFTISRDNAKNTVYLQMNSLKPEDTAVYYCAARSDVYTHDYWGQGTQVTVSS | high polyreactivity
12 | QVQLVESGGGLVQEGGILRLSCAASGRTFTWYAMEWYRQAPGKERELVAAISFSGGSTYYADSVKGRFTISRDNAKNTVYLQMNSLKPEDSAVYYCARASGDAWEGPRLDYWGQGTQVTVSS | low polyreactivity
13 | QVQLVESGGGLVQEGGSHRLSCAASASTFWSYTMGWYRQAPGKERELVAAISPSGGSTSYADSVKGRFTISRDHAKNTVYLQMNSLKPEDTAVYYGAADDRYGSRYSYWGHGTQVTVSS | high polyreactivity
14 | QVQLVESGGGLVQEGGSIRLSCDASGFIFDVYAIGWYRTAAGKERELVDAISSVGSTYYADSVKGRFTISRDNATNTVYLQMNSLKPEDTAVYYCADVRFYTYNYWGQGTQVTVSS | low polyreactivity
15 | QVQLVESGGGLVQEGGSLRFSCAASGSTFHSYAMGWYRQAPGKERELVAAISTSGGTTYYADSVKGRFTISRDNAKNTVYLQMNSLKPEDTAVYYCAARRVTSPFGTDSWGQGTQVTVSS | low polyreactivity
16 | QVQLVESGGGLVQEGGSLRLICAASGRTFGTNAMGWYRQAPAKERELVAGINYSDGSTYYADSVKGRFTITRDNAKNTVYLQMNSMKPEDTAVYYCAADPGWAWWELNYWGQGTQVTVSS | low polyreactivity
17 | QVQLVESGGGLVQEGGSLRLICAASGRTFYINDMGWYRQAPGKEREFVAAITWSGGSTYYADSVKGRFTISRDNAKNTVYLQMNSLKPEDTAVYYCARPYRGSPRYYYWGQGTQVTVSS | high polyreactivity
18 | QVQLVESGGGLVQEGGSLRLICAASGSTFGVNAMGWYRQAPGKERELVAAISSSGYSTYADSVKGRFTISRDNAKNTVYLQMNSLKPEDTAVYYCNKTTLLTVEYDYWGQGTQVTVSS | low polyreactivity
19 | QVQLVESGGGLVQEGGSLRLRCAASGSIFPYNAMGWYRQAPGKERELVAAISSTGGRTYYADSVKGRFTISRDNAKNTVYLQMNSLKPEDTAVYYCAARLYDKPGFYSWGEGTQVTVSS | high polyreactivity
20 | QVQLVESGGGLVQEGGSLRLSCAASGFIFRGNGMGWYRQAPGKERELVAAIDSTDSKNYADSVKGRFTISRDNAKNTVYLQMNSLKPEDTAVYYCAAGVSWYGPYDYLWFYAFDYWGQGTQVTVSS | low polyreactivity
21 | QVQLVESGGGLVQEGGSLRLSCAASGFILVNYAMGWYRQAPGKEREFVAAISGSGTRTYYADSVKGRFTISRDNAKNTVYLQMNSLKPEDTAVYYCAARVGYRKLYYYWGQGTQVTVSS | high polyreactivity

Row | Sequence | polyreactivity (PSR sort gate)
22 | QVQLVESGGGLVQEGGSLRLSCAASGFTFDSNAMGWYRQAPGKERELVAAISTGGSTYYADSVKGRFTISRDNAKNTVYLQMNSLKPEDTAVYYCARDPPYPDTWYGYWGQGTQVTVSS | low polyreactivity
23 | QVQLVESGGGLVQEGGSLRLSCAASGFTFRANAMGWYRQAPGKERELVAVITGSGRTYYSDSVKGRFTISRDNAKNTVYLQMNRLKPEYTAVYYCAARAAYRVSSAGYDSLGQGTQVTVSS | high polyreactivity
24 | QVQLVESGGGLVQEGGSLRLSCAASGFTFRWYAMGWYRQPPRKERELFAVISSGGRTYYADSVKGRFTISRDNAKNTVYLEKNSLKPEDTAVYSCAAEFTDHYPDYWGYPLYDYWGQGTQVTVSS | high polyreactivity
25 | QVQLVESGGGLVQEGGSLRLSCAASGFTIFQYAMGWYRQAPGKERELVATITSAGSTNYADSVKGRFTISLDNAKNTVYLQMNSLIPEDTAVYYCNTKKLPYAEGYWGQGTQVSVSS | low polyreactivity
26 | QVQLVESGGGLVQEGGSLRLSCAASGGTFRWYTMGWYRQAPGKERELVAAISSTGSTYYADSVKGRFTISRDNAKNTVYLQMNSLKPEDTAVYYCNASYNGKGSWDLDYWGQGTQVTVSS | high polyreactivity
27 | QVQLVESGGGLVQEGGSLRLSCAASGGTFWLYTMGWYRQAPGKERELVAAITKSGGSTYYADSVKGRFTISRDNAKNTVYLQMNSLKPEDTAVYDCAARYSVYRDGYYWGQGTQVTVSS | high polyreactivity
28 | QVQLVESGGGLVQEGGSLRLSCAASGGTFYVNDMGWYRQAPGKERELVATITSGDSTNYADSVKGRFTISRDNAKNTVYLQRNCLKPEDTAVYYCNARGDVIVTPPKFSFNYVYWGQGTQVTVSS | low polyreactivity
29 | QVQLVESGGGLVQEGGSLRLSCAASGIIFLENAMGWYRQAPGKERELVAGISSGGNTNYADSVKARFTISRDNAKNTVYLHMNSLKPEDTAVYYCNARCHRAVPGDELGYWGQGTQLTVSS | low polyreactivity
30 | QVQLVESGGGLVQEGGSLRLSCAASGIIFQRNDMGWYRQAPGKERELVANIRDGGITYADSVKGRFTISRDNAKNTVYLQMNSLKPEDTAVYYCARDDTSPGYGDQSSNAAYYYWGQGTQVTVSS | low polyreactivity
31 | QVQLVESGGGLVQEGGSLRLSCAASGIIFSRYAMGWYRPAPGKERELVAAITRSGGDTYYADSVKGRFTISRDNAKNTVYLQMNSLNPEDTAVYYCAAERTWYPWVATGYYWGQGTQVTVSS | low polyreactivity
32 | QVQLVESGGGLVQEGGSLRLSCAASGINFNVNALGWYKQAPGKERELVARITTSGGSTSYADSVKGRFTISRDNAKNTVYLQMNSLKPDDTAVYYCAADRARYYSEYDYWGQGTQVNVSS | low polyreactivity
33 | QVQLVESGGGLVQEGGSLRLSCAASGLISQRNVMGWYRQAPGKERELVARISTSSSGTYYADSVKGRFTISRDNAKNTFYLHMYSLKPEYTAVYYCAVRYRGGAARQIYDYWGQGTQVTVSS | high polyreactivity
34 | QVQLVESGGGLVQEGGSLRLSCAASGRIFSRYVMGWYRQAPGKERELVAAITGSGGSTYYADSVKGRFTISRDNAKNTVYLQMNSLKPEDTADYYCAVVSRANSYRYNYWGQGTQVTVSS | high polyreactivity
35 | QVQLVESGGGLVQEGGSLRLSCAASGRIYARNAMGWYRQAPGKERDLVAAIRNSDGSTYYADSVNGRFTISRDNAKNSVYLQMNSLKPEDTAVYYCNTVPYPAYLARMDYWGQGTQVTVSS | high polyreactivity
36 | QVQLVESGGGLVQEGGSLRLSCAASGRTFAIYTMGCYRQAPGKERELVATNSGSAGNTYYADSVKGRYTISRDNAKNTVYLQMNSLIPEDTAVYYCAARQRKSRQIVLLDYWGQGTQVTVSS | high polyreactivity
37 | QVQLVESGGGLVQEGGSLRLSCAASGRTFWAYAMGWYRQAPGKERELVAAITTSGGSTNYADSVKGRFTISRDNAKNTVYLQMNSLKPEDTADYYCNADPTYHVVNGVAYWGQGTQVTVSS | low polyreactivity
38 | QVQLVESGGGLVQEGGSLRLSCAASGRTFYQYAMGWYRQAPGKERELVAVINGGGSTNYADSVKGRFTISRDNAKNTVYLQMNSLIPEDTAVYYCNADDVFDFDYWGQGTQVTVSS | low polyreactivity
39 | QVQLVESGGGLVQEGGSLRLSCAASGRTLHKNVMGWYRQAPGKERELVAAINTGGRTYYADSVKGRFTISRDNAKHTVYLQMNSLKPEDTAVYYCAKEGHVNPRPTVGGDYWGHGTQVTVSS | low polyreactivity
40 | QVQLVESGGGLVQEGGSLRLSCAASGSIFIANAMGWYRQAPGKERELVARITRGGRTNYADSVKGRFTISRDNAKNTVYLQMNSLKPEDTAVYYCAAVYYVGFPHKYDYWGQGTQVTVSS | low polyreactivity
41 | QVQLVESGGGLVQEGGSLRLSCAASGSIFLQYAMGWYRQAPGKERELVAGISLRGCSTYYADSVKGRFTISRDNAKNTVYVQLNSLKPEDTAVYYCAADVIVTVETHTSGPSFTEYDYWGQGTQVTVSS | low polyreactivity

From the nanobody polyreactivity screen of Harvey et al. (2022)
